Consider two molecules from publication PMC6011117, “Comparative Evaluation of Radioiodine and Technetium-Labeled DARPin 9_29 for Radionuclide Molecular Imaging of HER2 Expression in Malignant Tumors” (Contrast Media & Molecular Imaging, 2018).

The target of this test is T1, human epidermal growth factor receptor 2 (HER2) (human (endogenous in SKOV-3, BT474, …, UniProt P04626 23-1255)).
T1 construct: human epidermal growth factor receptor 2 (HER2), endogenous on the cell lines SKOV-3, BT474 and DU145; also called HER2 receptor; source: endogenous, on living SKOV-3, BT474 and DU145 cells
Nature of the test: radioligand binding; LigandTracer, real-time association and dissociation on living SKOV-3 cells at room temperature; radioconjugate at 1, 4 and 8 nM; TraceDrawer fit with a 1:2 binding model. The settings on record: one partner purified.

B1: [125I]I-DARPin 9_29 (designed binder)
chain: MDLGKKLLEAARAGQDDEVRILMANGADVNAHDFYGITPLHLAANFGHLEIVEVLLKHGADVNAFDYDNTPLHLAADAGHLEIVEVLLKYGADVNASDRDGHTPLHLAAREGHLEIVEVLLKNGADVNAQDKFGKTAFDISIDNGNEDLAEILQKLAAALE
modifications: iodine-125 label attached to tyrosine (direct radioiodination)
notes: designed ankyrin repeat protein 9_29 against HER2; also called radioiodinated DARPin 9_29; source: E. coli BL21(DE3), purified (HisTrap HP, MonoQ); directly radioiodinated with chloramine T, purified on NAP-5; not shown: His6, C-terminal, kept
With B1, the “KD of the strongest interaction (1:2 binding model)” value came to 0.362 ± 0.13 nM and the “KD of the weaker interaction (1:2 binding model)” value came to 7.7 ± 2.8 nM.

B2: [99mTc]Tc(CO)3-DARPin 9_29 (designed binder)
chain: B1 chain
modifications: [99mTc]Tc(CO)3 chelated by the C-terminal hexahistidine tag
notes: designed ankyrin repeat protein 9_29 against HER2; also called 99mTc(CO)3-DARPin 9_29; [99mTc]Tc-DARPin 9_29; source: E. coli BL21(DE3), purified (HisTrap HP, MonoQ); labelled with technetium-99m tricarbonyl, purified on NAP-5; not shown: His6, C-terminal, kept
B2: the “KD of the strongest interaction (1:2 binding model)” value stood at 0.439 ± 0.156 nM and the “KD of the weaker interaction (1:2 binding model)” value was 9.1 ± 2.7 nM.
